The record followed here is patent US20130089566A1.

This experiment deals with polypeptide B9-23 composed of the ninth to twenty-third amino acid residues of the amino terminal on B chain of human insulin (human).

Consider “spleen T cells of Balb/c mice of the B9-23 immune group (cells without a defined receptor)”, for which the T cell proliferation (CFSE staining, flow cytometry) came out at 8.94%.
As for “spleen T cells of Balb/c mice of the pcDB9-23 and B9-23 coimmune group (cells without a defined receptor)”, the figure is 0.08%; as for “spleen T cells of Balb/c mice of the pcDB9-23 immune group (cells without a defined receptor)”, 22.3%.
